Laboratory results reported in publication PMC8069557.

Target: C-terminal extension of Bacillus cereus hemolysin II (HlyIICTD) (Bacillus cereus)
Assay: not stated; HlyIICTD in the presence of 4M urea

Substance: C-terminal extension of Bacillus cereus hemolysin II (HlyIICTD) (domain or fragment)
- stoichiometry N: 3
